Results as given in patent US20100310509A1 (published 2010).

Molecular target: T1, soluble human OSMR (Oncostatin M receptor) (human, UniProt Q99650 28-740)
T1 construct: extracellular domain; Bought; also called soluble OSMR
T1 sequence (looked up): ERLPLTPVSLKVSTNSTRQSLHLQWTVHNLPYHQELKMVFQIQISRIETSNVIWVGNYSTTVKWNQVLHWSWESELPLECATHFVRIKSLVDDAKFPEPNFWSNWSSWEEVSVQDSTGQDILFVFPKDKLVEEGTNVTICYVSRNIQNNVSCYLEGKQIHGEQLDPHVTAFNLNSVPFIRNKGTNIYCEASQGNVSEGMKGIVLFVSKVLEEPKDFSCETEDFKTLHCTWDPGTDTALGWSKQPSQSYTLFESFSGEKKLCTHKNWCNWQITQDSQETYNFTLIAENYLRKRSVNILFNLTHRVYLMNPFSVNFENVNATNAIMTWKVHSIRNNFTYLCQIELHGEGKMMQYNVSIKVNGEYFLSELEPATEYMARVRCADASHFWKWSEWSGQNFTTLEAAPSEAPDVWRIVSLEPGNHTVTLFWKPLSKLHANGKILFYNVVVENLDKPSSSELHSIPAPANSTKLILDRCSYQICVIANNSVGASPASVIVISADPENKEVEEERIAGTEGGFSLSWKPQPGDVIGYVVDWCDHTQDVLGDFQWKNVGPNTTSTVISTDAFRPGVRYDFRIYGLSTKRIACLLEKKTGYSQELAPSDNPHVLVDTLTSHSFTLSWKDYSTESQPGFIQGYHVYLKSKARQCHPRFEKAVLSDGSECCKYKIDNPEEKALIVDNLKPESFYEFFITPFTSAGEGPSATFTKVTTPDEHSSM
Assay: SPR (SensiQ), OSM-M1 immobilised, soluble OSMR injected (150nM, 100nM, 50nM, 25nM, 10nM, 5nM)
Procedure: Surface Plasmon Resonance (SPR): Kinetic parameters of the interactions between receptor domains and the cytokines LIF, OSM-WT, OSM-M1 or OSM-M2 were analyzed by SPR using the SENSIQ® system (ICX Technologies, Oklahoma City, Okla.) as described by the manufacturer protocol. Briefly, a carboxyl sensor with two channels was installed in SENSIQ® and allowed to thermally equilibrate for about 15 minutes. The channels were initially cleaned with a 3 minute injection of 0.1 M HCl. An activation solution of 2 mM 1-Ethyl-3-[3-dimethylaminopropyl]carbodiimide hydrochloride (EDC) and 0.5 mM N-hydroxysulfo succinimide (NHS) was prepared in deionized water immediately before injection. Activation solution was injected over both channels for approximately 3 minutes followed by a 10 minute injection of 50 μg/mL cytokine (LIF, OSM-WT, OSM-M1 or OSM-M2) in 10 mM acetate buffer, pH 5.0, over channel 1. […] Unreacted NHS esters were capped with a 3 minute injection of 1 M ethanolamine, pH 8.0, over both channels. […] A concentration series of soluble LIFR (# 249-LR-050/CF, R&D Systems, Minneapolis, Minn.), soluble OSMR (# 4389-OR-50, R&D Systems, Minneapolis, Minn.) or soluble gp130 (# 228-GP-050/CF, R&D Systems, Minneapolis, Minn.) in running buffer (10 mM HEPES pH 7.4, 150 mM NaCl, 3.4 mM EDTA, 0.005% Tween-20) were injected over both channels at a flow rate of 25 μl/min. […]

binding result: no binding (tested: 150 nM)
B1: OSM-M1 (OSM with BC loop truncated from 12 to 7 amino acids) (ligand)
chain: AAIGSCSKEYRVLLGQLQKQTDLMQDTSRLLDPYIRIQGLDVPKLREHCRERPGAFPSEETLRGLGRRGFLQTLNATLGCVLHRLADLEQRLGAPSGLNIEDLEKLQMARPNILGLRNNIYCMAQLLDNSDTAEPTKAGAGASQPPTPTPASDAFQRKLEGCRFLHGYHRFMHSVGRVFSKWGESPN
notes: Made from the 'AGA' modified OSM template; lacks the thrombin site; not shown: N-terminal FLAG tag left after thrombin removal of GST
